Drawing on PMC5586252, “PP2A-B′ holoenzyme substrate recognition, regulation and role in cytokinesis” (Cell Discovery, 2017), this text covers concentration and lowest concentration for one substance.

In this experiment the target is GST-tagged B′γ1 regulatory subunit (UniProt Q13362). In words: pull-down; 10 μg GST-tagged B′γ1 immobilised; titrated concentrations of phosphorylated or non-phosphorylated Cyk4 (1–177).

As for “pCyk4 (1–177), Plk1-phosphorylated (from UniProt Q9H0H5 1-177) (domain or fragment)”, the concentration at half maximum binding lay in the range of 2.5 to 5 µM and the lowest concentration at which the interaction is detected worked out at 0.6 µM.
